Results from paper PMC7857395 (2020).

B1: S2M11 Fab fragment (Fab, V domains shown)
VH: EVQLVQSGAEVKKPGASVKVSCKASGYTFTGYYMHWVRQAPGQGLEWMGWINPISSGTSYAQTFQGRVTMTSDTSITTAYMELSRLRSDDTAVYYCARAAPFYDFWSGYSYFDYWGQGTLVTVSS
VL: not shown
B2: S2E12 Fab fragment (Fab, V domains shown)
VH: not shown
VL: DIVLTQTPGTLSLSPGERATLSCRASQSVSSSYLAWYQQKPGQAPRLLIYGASSRATGIPDRFSGSGSGTDFTLTISRLEPEDFAVYYCQQYVGLTGWTFGQGTKVEIK

Target: SARS-CoV-2 S receptor-binding domain (RBD) (SARS-CoV-2, UniProt P0DTC2)
Test: SPR

Binder	Kd [nM]
B1	66
B2	1.6
